{
  "source": "paper PMC7197785",
  "about": "(PLoS Pathogens, 2020)",
  "binders": {"B1": {"name": "GSTEhRab21 (enzyme)", "chain": "MENEFKVVLLGEGKVGKTSMILRYTQNFFTPEEGPRTTQASYVSKTLNIDKNDYIINIWDTAGQEKYQALTPIYYRDSQGAILVYDITEPRSFQRVQTEVDNIRDMLGDSCCIVIVGNKMDLVQQRKISKEEADKYAESVKAIHYLCSCATGDGISDVFEGLTKQMVDKRKSLGDDELFDRKKSTLVFQDDKNNTRQAKSDCC", "notes": "also called GppNHp-GSTEhRab21; GDP-GSTEhRab21; source: recombinant, purified"}},
  "key": {"[1]": {"target": "HisEhC2B121 (E. histolytica)", "assay": "ITC"}, "[2]": {"target": "T1, MBPEhC2BHis (E. histolytica, UniProt C4M344 1-208)", "T1 construct": "also called EhC2B full-length; not shown: MBP, N-terminal, kept; His-tag, C-terminal, kept", "T1 sequence": "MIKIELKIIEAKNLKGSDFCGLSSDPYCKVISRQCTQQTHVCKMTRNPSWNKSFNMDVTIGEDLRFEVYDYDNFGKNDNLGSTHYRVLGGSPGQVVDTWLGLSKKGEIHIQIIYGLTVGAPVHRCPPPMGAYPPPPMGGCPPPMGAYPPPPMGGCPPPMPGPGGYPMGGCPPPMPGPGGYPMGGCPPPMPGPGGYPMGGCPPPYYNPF", "assay": "ITC", "details": "both partners purified"}},
  "data": [
    {"binder": "B1", "values": [
      {"measurement": "Ka", "setting": "[1]", "result": "9.6e+06", "unit": "M⁻¹"},
      {"measurement": "dH", "setting": "[1]", "result": -15.6, "unit": "kcal/mol"},
      {"measurement": "stoichiometry N", "setting": "[1]", "result": 1},
      {"measurement": "Ka", "setting": "[2]", "result": "1.24e+07", "unit": "M⁻¹"},
      {"measurement": "dH", "setting": "[2]", "result": -9.23, "unit": "kcal/mol"},
      {"measurement": "stoichiometry N", "setting": "[2]", "result": 1}
    ]}
  ]
}
